Measured values taken from the Human Domainome abundance scans (Beltran et al. 2025).
± gives the uncertainty stated by the source.

B1: V(D)J recombination-activating protein 2, residues 415 to 491; numbered along this chain, P55895 (parent)
chain: YWITCCPTCDVDINTWVPFYSTELNKPAMIYCSHGDGHWVHAQCMDLAERTLIHLSAGSNKYYCNEHVEIARALHTP

Variants of: B1
Test: abundance fitness (aPCA) (normalised: wild type 0, dead -1); higher = more abundant; growth selection in yeast, the domain comes from the species named
Conditions: Homo sapiens

For YWITCCPTCDVDINTWVPFYSTELNKPAMIYCSHGDGHWVHAQCMDLAERTLIHLSNGSNKYYCNEHVEIARALHTP [A57N], which abundance fitness is on record?
The abundance fitness was 0.057 ± 0.11.

For YWITCCPTCDVDINTWVPFYSTELNKPAMIYCSHGDGHWVHAQCMDLAERTLIHLSIGSNKYYCNEHVEIARALHTP [A57I], which abundance fitness is on record?
The abundance fitness was 0.216 ± 0.29.

Which abundance fitness does the source give for YWITCCPTCDVDINTWVPFYSTELNKPAMIYCSHGDGHWVHAQCMDLAERTLIHLQAGSNKYYCNEHVEIARALHTP [S56Q] here?
Its abundance fitness is -0.031 ± 0.13.

With YWITCCPTCDVDINTWVPFYSTELNKPAMIYCSHGDGHWVHAQCMDLAERTLIHLAAGSNKYYCNEHVEIARALHTP [S56A] as the variant, how does the abundance fitness read?
Its abundance fitness is 0.078 ± 0.063.

With YWITCCPTCDVDINTWVPFYSTELNKPAMIYCSHGDGHWVHAQCMDLAERTLIHLWAGSNKYYCNEHVEIARALHTP [S56W] as the variant, how does the abundance fitness read?
Its abundance fitness is -0.07 ± 0.062.

Which abundance fitness does the source give for YWITCCPTCDVDINTWVPFYSTELNKPAMIYCSHGDGHWVHAQCMDLAERTLIHLLAGSNKYYCNEHVEIARALHTP [S56L] here?
Its abundance fitness is -0.046 ± 0.064.

Which abundance fitness does the source give for YWITCCPTCDVDINTWVPFYSTELNKPAMIYCSHGDGHWVHAQCMDLAERTLIHLKAGSNKYYCNEHVEIARALHTP [S56K] here?
Its abundance fitness is 0.029 ± 0.1.

With YWITCCPTCDVDINTWVPFYSTELNKPAMIYCSHGDGHWVHAQCMDLAERTLIHLDAGSNKYYCNEHVEIARALHTP [S56D] as the variant, how does the abundance fitness read?
Its abundance fitness is -0.04 ± 0.092.

For YWITCCPTCDVDINTWVPFYSTELNKPAMIYCSHGDGHWVHAQCMDLAERTLIHLCAGSNKYYCNEHVEIARALHTP [S56C], which abundance fitness is on record?
Its abundance fitness is -0.099 ± 0.11.

Which abundance fitness does the source give for YWITCCPTCDVDINTWVPFYSTELNKPAMIYCSHGDGHWVHAQCMDLAERTLIHLPAGSNKYYCNEHVEIARALHTP [S56P] here?
The abundance fitness was -0.074 ± 0.095.

Which abundance fitness does the source give for YWITCCPTCDVDINTWVPFYSTELNKPAMIYCSHGDGHWVHAQCMDLAERTLIHLIAGSNKYYCNEHVEIARALHTP [S56I] here?
Its abundance fitness is -0.113 ± 0.13.

Which abundance fitness does the source give for YWITCCPTCDVDINTWVPFYSTELNKPAMIYCSHGDGHWVHAQCMDLAERTLIHLEAGSNKYYCNEHVEIARALHTP [S56E] here?
Its abundance fitness is 0.058 ± 0.065.

With YWITCCPTCDVDINTWVPFYSTELNKPAMIYCSHGDGHWVHAQCMDLAERTLIHLTAGSNKYYCNEHVEIARALHTP [S56T] as the variant, how does the abundance fitness read?
The abundance fitness was 0.004 ± 0.099.

Which abundance fitness does the source give for YWITCCPTCDVDINTWVPFYSTELNKPAMIYCSHGDGHWVHAQCMDLAERTLIHLGAGSNKYYCNEHVEIARALHTP [S56G] here?
Its abundance fitness is 0.005 ± 0.037.

With YWITCCPTCDVDINTWVPFYSTELNKPAMIYCSHGDGHWVHAQCMDLAERTLIHLHAGSNKYYCNEHVEIARALHTP [S56H] as the variant, how does the abundance fitness read?
The abundance fitness was -0.038 ± 0.14.

With YWITCCPTCDVDINTWVPFYSTELNKPAMIYCSHGDGHWVHAQCMDLAERTLIHLYAGSNKYYCNEHVEIARALHTP [S56Y] as the variant, how does the abundance fitness read?
Its abundance fitness is 0.052 ± 0.12.

With YWITCCPTCDVDINTWVPFYSTELNKPAMIYCSHGDGHWVHAQCMDLAERTLIHLFAGSNKYYCNEHVEIARALHTP [S56F] as the variant, how does the abundance fitness read?
The abundance fitness was -0.052 ± 0.1.

Which abundance fitness does the source give for YWITCCPTCDVDINTWVPFYSTELNKPAMIYCSHGDGHWVHAQCMDLAERTLIHLVAGSNKYYCNEHVEIARALHTP [S56V] here?
The abundance fitness was 0.005 ± 0.048.

Which abundance fitness does the source give for YWITCCPTCDVDINTWVPFYSTELNKPAMIYCSHGDGHWVHAQCMDLAERTLIHLNAGSNKYYCNEHVEIARALHTP [S56N] here?
The abundance fitness was -0.194 ± 0.1.

For YWITCCPTCDVDINTWVPFYSTELNKPAMIYCSHGDGHWVHAQCMDLAERTLIHLSAGLNKYYCNEHVEIARALHTP [S59L], which abundance fitness is on record?
The abundance fitness was -0.087 ± 0.085.

For YWITCCPTCDVDINTWVPFYSTELNKPAMIYCSHGDGHWVHAQCMDLAERTLIHLSAGANKYYCNEHVEIARALHTP [S59A], which abundance fitness is on record?
The abundance fitness was 0.078 ± 0.073.

With YWITCCPTCDVDINTWVPFYSTELNKPAMIYCSHGDGHWVHAQCMDLAERTLIHLSAGHNKYYCNEHVEIARALHTP [S59H] as the variant, how does the abundance fitness read?
The abundance fitness was -0.043 ± 0.21.

For YWITCCPTCDVDINTWVPFYSTELNKPAMIYCSHGDGHWVHAQCMDLAERTLIHLSAGKNKYYCNEHVEIARALHTP [S59K], which abundance fitness is on record?
The abundance fitness was 0.053 ± 0.11.

With YWITCCPTCDVDINTWVPFYSTELNKPAMIYCSHGDGHWVHAQCMDLAERTLIHLSAGINKYYCNEHVEIARALHTP [S59I] as the variant, how does the abundance fitness read?
Its abundance fitness is 0.103 ± 0.16.

Which abundance fitness does the source give for YWITCCPTCDVDINTWVPFYSTELNKPAMIYCSHGDGHWVHAQCMDLAERTLIHLSAGQNKYYCNEHVEIARALHTP [S59Q] here?
The abundance fitness was -0.224 ± 0.077.

Which abundance fitness does the source give for YWITCCPTCDVDINTWVPFYSTELNKPAMIYCSHGDGHWVHAQCMDLAERTLIHLSAGENKYYCNEHVEIARALHTP [S59E] here?
Its abundance fitness is 0.002 ± 0.12.

Which abundance fitness does the source give for YWITCCPTCDVDINTWVPFYSTELNKPAMIYCSHGDGHWVHAQCMDLAERTLIHLSAGFNKYYCNEHVEIARALHTP [S59F] here?
Its abundance fitness is -0.088 ± 0.097.

For YWITCCPTCDVDINTWVPFYSTELNKPAMIYCSHGDGHWVHAQCMDLAERTLIHLSAGTNKYYCNEHVEIARALHTP [S59T], which abundance fitness is on record?
Its abundance fitness is 0.02 ± 0.093.

For YWITCCPTCDVDINTWVPFYSTELNKPAMIYCSHGDGHWVHAQCMDLAERTLIHLSAGVNKYYCNEHVEIARALHTP [S59V], which abundance fitness is on record?
The abundance fitness was -0.068 ± 0.068.

With YWITCCPTCDVDINTWVPFYSTELNKPAMIYCSHGDGHWVHAQCMDLAERTLIHLSAGWNKYYCNEHVEIARALHTP [S59W] as the variant, how does the abundance fitness read?
Its abundance fitness is -0.225 ± 0.071.

Which abundance fitness does the source give for YWITCCPTCDVDINTWVPFYSTELNKPAMIYCSHGDGHWVHAQCMDLAERTLIHLSAGGNKYYCNEHVEIARALHTP [S59G] here?
The abundance fitness was 0.019 ± 0.044.

With YWITCCPTCDVDINTWVPFYSTELNKPAMIYCSHGDGHWVHAQCMDLAERTLIHLSAGNNKYYCNEHVEIARALHTP [S59N] as the variant, how does the abundance fitness read?
The abundance fitness was -0.25 ± 0.21.

For YWITCCPTCDVDINTWVPFYSTELNKPAMIYCSHGDGHWVHAQCMDLAERTLIHLSAGMNKYYCNEHVEIARALHTP [S59M], which abundance fitness is on record?
Its abundance fitness is -0.042 ± 0.09.

Which abundance fitness does the source give for YWITCCPTCDVDINTWVPFYSTELNKPAMIYCSHGDGHWVHAQCMDLAERTLIHLSAGCNKYYCNEHVEIARALHTP [S59C] here?
Its abundance fitness is -0.005 ± 0.1.

Which abundance fitness does the source give for YWITCCPTCDVDINTWVPFYSTELNKPAMIYCSHGDGHWVHAQCMDLAERTLIHLSAGRNKYYCNEHVEIARALHTP [S59R] here?
Its abundance fitness is -0.115 ± 0.059.

With YWITCCPTCDVDINTWVPFYSTELNKPAMIYCSHGDGHWVHAQCMDLAERTLIHLSAGPNKYYCNEHVEIARALHTP [S59P] as the variant, how does the abundance fitness read?
Its abundance fitness is 0.062 ± 0.091.
